According to PMC9221696:

B1: wild-type Fas receptor (Fas/CD95) tagged with mCerulean3 or mVenus [human] / Cerulean3-tagged FADD containing only the death domain (FADD DD) [human] (parent)
chain 1: LCAAFNVICDNVGKDWRRLARQLKVSDTKIDSIEDRYPRNLTERVRESLRIWKNTEKENATVAHLVGALRSCQMNLVADLVQEVQ
chain 2: QVTDINSKGLELRKTVTTVETQNLEGLHHDGQFCHKPCPPGERKARDCTVNGDEPDCVPCQEGKEYTDKAHFSSKCRRCRLCDEGHGLEVEINCTRTQNTKCRCKPNFFCNSTVCEHCDPCTKCEHGIIKECTLTSNTKCKEEGSRSNLGWLCLLLLPIPLIVWVKRKEVQKTCRKHRKENQGSHESPTLNPETVAINLSDVDLSKYITTIAGVMTLSQVKGFVRKNGVNEAKIDEIKNDNVQDTAEQKVQLLRNWHQLHGKKEAYDTLIKDLKKANLCTLAEKIQTIILKDITSDSENSNFRNEIQSLV
B2: wild-type Fas receptor (Fas/CD95) tagged with mCerulean3 or mVenus [human] / itself (parent)
chain: B1 chain 2

How the values were obtained:
[1] = variants of: B1; assay: flow-cytometric FRET between Fas and FADD DD in live cells; conditions: with Cerulean3-tagged FADD containing only the death domain (FADD DD) [human], RapoC2 (Fas-deficient Jurkat) cells, read off a plot
itself = variants of: B2; assay: flow-cytometric FRET (mCerulean3/mVenus) in live cells; conditions: with itself, RapoC2 (Fas-deficient Jurkat) cells, 24 h post-transfection, read off a plot

## chain 2 QVTDINSKGLELRKTVTTVETQNLEGLHHDGQFCHKPCPPGERKARDCTVNGDEPDCVPCQEGKEYTDKAHFSSKCRRCRLCDEGHGLEVEINCTRTQNTKCRCKPNFFCNSTVCEHCDPCTKCEHGIIKECTLTSNTKCKEEGSRSNLGWLCLLLLPIPLIVWVKRKEVQKTVRKHRKENQGSHESPTLNPETVAINLSDVDLSKYITTIAGVMTLSQVKGFVRKNGVNEAKIDEIKNDNVQDTAEQKVQLLRNWHQLHGKKEAYDTLIKDLKKANLCTLAEKIQTIILKDITSDSENSNFRNEIQSLV [chain 2 C174V]
[1]; FasL-LZ 5 min, parent: 1.3
  screen value: 1.4
[1]; FasL-LZ 15 min, parent: 1.5
  screen value: 1.6
[1]; FasL-LZ 30 min, parent: 1.7
  screen value: 1.8
[1]; FasL-LZ 60 min, parent: 1.9
  screen value: 1.9
[1]; FasL-LZ 120 min, parent: 1.9
  screen value: 2

## chain 2 QVTDINSKGLELRKTVTTVETQNLEGLHHDGQFCHKPCPPGERKARDCTVNGDEPDCVPCQEGKEYTDKAHFSSKCRRCRLCDEGHGLEVEINCTRTQNTKCRCKPNFFCNSTVCEHCDPCTKCEHGIIKECTLTSNTKCKEEGSRSNLGWLCLLLLPIPLIVWVKRKEVQKTCRKHRKENQGSHESPTLNPETVAINLSDVDLSKYITTIAGVMTLSQVKGFVRKNGVNEAKIDKIKNDNVQDTAEQKVQLLRNWHQLHGKKEAYDTLIKDLKKANLCTLAEKIQTIILKDITSDSENSNFRNEIQSLV [chain 2 E236K]
[1]; FasL-LZ 5 min, parent: 1.3
  screen value: 1.1
[1]; FasL-LZ 15 min, parent: 1.5
  screen value: 1.1
[1]; FasL-LZ 30 min, parent: 1.7
  screen value: 1.1
[1]; FasL-LZ 60 min, parent: 1.9
  screen value: 1.1
[1]; FasL-LZ 120 min, parent: 1.9
  screen value: 1.1

## chain 2 QVTDINSKGLELRKTVTTVETQNLEGLHHDGQFCHKPCPPGERKARDCTVNGDEPDCVPCQEGKEYTDKAHFSSKCRRCRLCDEGHGLEVEINCTRTQNTKCRCKPNFFCNSTVCEHCDPCTKCEHGIIKECTLTSNTKCKEEGSRSNLGWLCLLLLPIPLIVWVKRKEVQKTCRKHRKENQGSHESPTLNPETVAINLSDVDLSKYITTIAGVMTLSQVKGFVRKNGVNEDKIDEIKNDNVQDTAEQKVQLLRNWHQLHGKKEAYDTLIKDLKKANLCTLAEKIQTIILKDITSDSENSNFRNEIQSLV [chain 2 A232D]
[1]; FasL-LZ 5 min, parent: 1.3
  screen value: 1.1
[1]; FasL-LZ 15 min, parent: 1.5
  screen value: 1.1
[1]; FasL-LZ 30 min, parent: 1.7
  screen value: 1.1
[1]; FasL-LZ 60 min, parent: 1.9
  screen value: 1.1
[1]; FasL-LZ 120 min, parent: 1.9
  screen value: 1.1

## QVTDINSKGLELRKTVTTVETQNLEGLHHDGQFCHKPCPPGERKARDCTVNGDEPDCVPCQEGKEYTDKAHFSSKCRRCRLCDEGHGLEVEINCTRTQNTKCRCKPNFFCNSTVCEHCDPCTKCEHGIIKECTLTSNTKCKEEGSRSNLGWLCLLLLPIPLIVWVKRKEVQKTVRKHRKENQGSHESPTLNPETVAINLSDVDLSKYITTIAGVMTLSQVKGFVRKNGVNEAKIDEIKNDNVQDTAEQKVQLLRNWHQLHGKKEAYDTLIKDLKKANLCTLAEKIQTIILKDITSDSENSNFRNEIQSLV [chain 1 C174V]
itself; FasL-LZ 5 min, parent: 1.5
  screen value: 1.5
itself; FasL-LZ 15 min, parent: 1.9
  screen value: 1.9
itself; FasL-LZ 30 min, parent: 2
  screen value: 2.1

## QVTDINSKGLELRKTVTTVETQNLEGLHHDGQFCHKPCPPGERKARDCTVNGDEPDCVPCQEGKEYTDKAHFSSKCRRCRLCDEGHGLEVEINCTRTQNTKCRCKPNFFCNSTVCEHCDPCTKCEHGIIKECTLTSNTKCKEEGSRSNLGWLCLLLLPIPLIVWVKRKEVQKTCRKHRKENQGSHESPTLNPETVAINLSDVDLSKYITTIAGVMTLSQVKGFVRKNGVNEAKIDKIKNDNVQDTAEQKVQLLRNWHQLHGKKEAYDTLIKDLKKANLCTLAEKIQTIILKDITSDSENSNFRNEIQSLV [chain 1 E236K]
itself; FasL-LZ 5 min, parent: 1.5
  screen value: 1.3
itself; FasL-LZ 15 min, parent: 1.9
  screen value: 1.5
itself; FasL-LZ 30 min, parent: 2
  screen value: 1.6
itself; FasL-LZ 60 min, parent: 1.9
  screen value: 1.6
itself; FasL-LZ 120 min, parent: 1.9
  screen value: 1.6

## QVTDINSKGLELRKTVTTVETQNLEGLHHDGQFCHKPCPPGERKARDCTVNGDEPDCVPCQEGKEYTDKAHFSSKCRRCRLCDEGHGLEVEINCTRTQNTKCRCKPNFFCNSTVCEHCDPCTKCEHGIIKECTLTSNTKCKEEGSRSNLGWLCLLLLPIPLIVWVKRKEVQKTCRKHRKENQGSHESPTLNPETVAINLSDVDLSKYITTIAGVMTLSQVKGFVRKNGVNEDKIDEIKNDNVQDTAEQKVQLLRNWHQLHGKKEAYDTLIKDLKKANLCTLAEKIQTIILKDITSDSENSNFRNEIQSLV [chain 1 A232D]
itself; FasL-LZ 5 min, parent: 1.5
  screen value: 1.3
itself; FasL-LZ 15 min, parent: 1.9
  screen value: 1.5
itself; FasL-LZ 30 min, parent: 2
  screen value: 1.6
itself; FasL-LZ 60 min, parent: 1.9
  screen value: 1.6
itself; FasL-LZ 120 min, parent: 1.9
  screen value: 1.6
